Earlier results, collected in PMC5244385.

Biological target: Fibrinogen (Homo sapiens) (UniProt P02671)
Sequence of UniProt P02671 (P02671 36-866, chain 1 of 3): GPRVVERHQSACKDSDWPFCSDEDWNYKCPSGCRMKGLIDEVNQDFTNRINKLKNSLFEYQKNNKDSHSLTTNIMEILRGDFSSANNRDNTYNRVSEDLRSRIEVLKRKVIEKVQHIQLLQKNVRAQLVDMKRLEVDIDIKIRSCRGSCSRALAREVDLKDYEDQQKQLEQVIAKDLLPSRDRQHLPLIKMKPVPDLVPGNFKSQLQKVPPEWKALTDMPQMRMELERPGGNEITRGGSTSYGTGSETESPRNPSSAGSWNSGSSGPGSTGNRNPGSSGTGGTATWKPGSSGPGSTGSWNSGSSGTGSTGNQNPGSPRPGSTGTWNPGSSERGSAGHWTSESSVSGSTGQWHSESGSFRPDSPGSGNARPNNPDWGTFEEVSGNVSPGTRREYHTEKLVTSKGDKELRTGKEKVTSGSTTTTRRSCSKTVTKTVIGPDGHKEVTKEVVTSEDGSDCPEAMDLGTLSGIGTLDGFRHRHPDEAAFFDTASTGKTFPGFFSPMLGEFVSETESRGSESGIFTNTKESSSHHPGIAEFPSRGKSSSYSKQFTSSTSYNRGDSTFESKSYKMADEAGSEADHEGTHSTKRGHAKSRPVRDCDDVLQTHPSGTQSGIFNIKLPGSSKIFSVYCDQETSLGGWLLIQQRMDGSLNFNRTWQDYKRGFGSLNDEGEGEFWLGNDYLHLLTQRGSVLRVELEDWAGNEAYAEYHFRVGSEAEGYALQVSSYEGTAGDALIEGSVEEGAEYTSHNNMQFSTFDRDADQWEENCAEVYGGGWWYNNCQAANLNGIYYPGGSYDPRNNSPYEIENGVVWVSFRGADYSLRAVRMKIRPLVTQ
Sequence of UniProt P02671 (P02675 45-491, chain 2 of 3, further chain): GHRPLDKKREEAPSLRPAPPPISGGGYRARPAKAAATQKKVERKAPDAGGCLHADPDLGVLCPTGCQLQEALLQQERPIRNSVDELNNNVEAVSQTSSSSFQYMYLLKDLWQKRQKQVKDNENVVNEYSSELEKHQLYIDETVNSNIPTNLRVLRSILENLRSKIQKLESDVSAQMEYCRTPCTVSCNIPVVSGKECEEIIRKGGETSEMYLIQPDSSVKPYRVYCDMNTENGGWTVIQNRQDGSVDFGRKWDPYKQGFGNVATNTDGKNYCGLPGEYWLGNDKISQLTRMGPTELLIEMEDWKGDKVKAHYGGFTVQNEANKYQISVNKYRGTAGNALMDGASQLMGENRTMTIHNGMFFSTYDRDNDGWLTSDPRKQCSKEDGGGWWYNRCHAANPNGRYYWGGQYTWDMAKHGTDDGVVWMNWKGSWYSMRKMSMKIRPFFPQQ
Sequence of UniProt P02671 (P02679 27-453, chain 3 of 3, further chain): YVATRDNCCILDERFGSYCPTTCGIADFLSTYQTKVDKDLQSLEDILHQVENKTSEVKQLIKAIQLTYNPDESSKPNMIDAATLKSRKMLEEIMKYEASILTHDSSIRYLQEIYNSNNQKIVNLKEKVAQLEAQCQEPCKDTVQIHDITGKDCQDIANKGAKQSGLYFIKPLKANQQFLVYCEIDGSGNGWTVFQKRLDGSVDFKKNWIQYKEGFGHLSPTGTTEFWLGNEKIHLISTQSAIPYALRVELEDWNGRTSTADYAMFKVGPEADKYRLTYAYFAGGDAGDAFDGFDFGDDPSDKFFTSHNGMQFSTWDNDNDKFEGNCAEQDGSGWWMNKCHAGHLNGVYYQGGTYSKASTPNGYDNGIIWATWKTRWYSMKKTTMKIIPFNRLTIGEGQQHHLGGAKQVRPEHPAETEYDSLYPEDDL

## Clumping factor A (from UniProt Q53653)
  Kd: 510 nM
